Patent US20110091971A1, “Differentiation of Pluripotent Stem Cells” (priority 2008, published 2011)

Test system: H1 or H9 human embryonic stem cells
Experiment: Activin A bioassay: differentiation of human embryonic stem cells to definitive endoderm, cell number and SOX17 intensity by high content analysis (96-well, four days);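 for Cell Number average: Raw total cell count per well from high content imaging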;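 for Sox 17 Intensity average: total fluorescence of the cell multiplied by cell area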
Type: cell-based
Conditions: for Sox 17 Intensity % of control: control = R&D Sys Activin A 100 ng/ml on same plate
Excerpt: Activin A is an important mediator of differentiation in a broad range of cell types. […] A bioassay that measures this differentiation in human embryonic stem cells was adapted in miniaturized format to 96-well plates for screening purposes. Validation was completed using treatment with commercial sources of activin A and Wnt3a recombinant proteins and measuring protein expression of the transcription factor SOX17, which is considered a representative marker of definitive endoderm.
Live Cell Assay: Briefly, clusters of H1 or H9 human embryonic stem cells were grown on growth factor-reduced MATRIGEL™ (Invitrogen; Cat #356231)-coated tissue culture plastic. Cells were passaged using collagenase (Invitrogen; Cat # Cat #17104-019) treatment and gentle scraping, washed to remove residual enzyme, and plated in a ratio of 1:1 (surface area) on growth factor-reduced MATRIGEL™-coated 96-well plates (black, 96-well; Packard ViewPlates; Cat #6005182). Cells were allowed to attach as clusters and then recover log phase growth over a 1 to 3 day period, feeding daily with MEF conditioned medium supplemented with 8 ng/ml bFGF (R&D Systems; Cat #233-FB).
The assay was initiated by washing the wells of each plate twice in PBS and followed by adding an aliquot (100 μl) of test sample in DMEM:F12 basal medium (Invitrogen; Cat #11330-032) to each well. Test conditions were performed in triplicate, feeding […] by aspirating and replacing the medium from each well with test samples over a total four day assay period. On the first and second day of assay, test samples added to the assay wells were diluted in DMEM:F12 with 0.5% FCS (HyClone; Cat #SH30070.03) and 20 ng/ml Wnt3a (R&D Systems; Cat #1324-WN). On the third and fourth day of assay, test samples added to the assay wells were diluted in DMEM:F12 with 2% FCS, without any Wnt3a. Positive control samples consisted of recombinant human activin A (Peprotech; Cat #120-14) added at a concentration of 100 ng/ml throughout assay plus Wnt3a (20 ng/ml) on days 1 and 2. Negative control samples omitted treatment with both activin A and Wnt3a.
High Content Analysis: At the conclusion of four days of culture, assay plates were washed twice with PBS, fixed with 4% paraformaldehyde at room temperature for 20 minutes, then washed three times with PBS and permeabilized with 0.5% Triton X-100 for 20 minutes at room temperature. Cells were washed again three times with PBS and blocked with 4% chicken serum (Invitrogen; Cat #16110082) in PBS for 30 minutes at room temperature. Primary antibody (goat anti-human SOX17; R&D Systems; cat #AF1924) was diluted 1:100 in 4% chicken serum and added to each well for one hour at room temperature. Alexa Fluor 488 conjugated secondary antibody (chicken anti-goat IgG; Molecular Probes; Cat #) was diluted 1:200 in PBS and added to each sample well after washing three times with PBS. To counterstain nuclei, 4 μg/ml Hoechst 33342 (Invitrogen; Cat #H3570) was added for ten minutes at room temperature. Plates were washed once with PBS and left in 100 μl/well PBS for imaging.
Imaging was performed using an IN Cell Analyzer 1000 (GE Healthcare) utilizing the 51008bs dichroic for cells stained with Hoechst 33342 and Alexa Fluor 488. Exposure times were optimized from positive control wells and from untreated negative control wells stained with secondary antibody alone. Images from 15 fields per well were acquired to compensate for any cell loss during the bioassay and subsequent staining procedures. Measurements for total cell number and total SOX17 intensity were obtained from each well using IN Cell Developer Toolbox 1.7 (GE Healthcare) software. Segmentation for the nuclei was determined based on grayscale levels (baseline range 100-300) and nuclear size. Averages and standard deviations were calculated for each replicate data set. […]

[1] = supernatant concentration 1x, assay dilution 1:20
[2] = supernatant concentration 10x, assay dilution 1:20
[3] = supernatant concentration 10x, assay dilution 1:40
[4] = supernatant concentration 10x, assay dilution 1:20, assay plates #007, #009, #010
[5] = supernatant concentration 50x, assay dilution 1:20, assay plates #008, #009
[6] = supernatant concentration 50x, assay dilution 1:20

Molecule | Cell Number average [1] | Sox 17 Intensity average [1] | Sox 17 Intensity % of control [1] | Cell Number average [2] | Sox 17 Intensity average [2] | Sox 17 Intensity % of control [2] | Cell Number average [3] | Sox 17 Intensity average [3] | Sox 17 Intensity % of control [3] | Cell Number average [4] | Sox 17 Intensity average [4] | Cell Number average [5] | Sox 17 Intensity average [5] | Sox 17 Intensity % of control [6]
ACTN75: activin A variant peptide, SEQ ID 76 (protein) GLECDGKVNICCKKQSFGQAKDIGWNDWIIAPSGYHGGGCSGECPSHIAGTSGSSLSFHSTVINHYRMRGHSPWANLKSCCSPTKLRPMSMLYYDDGQNIIKKDIQRMKVEECGCT | 2873 | 1.81E+05 | 0.8% | 3867 | 3.91E+05 | 1.7% | 3641 | 1.24E+06 | 5.4% |  |  |  |  | 
ACTN89: activin A variant peptide, SEQ ID 90 (protein) GLECDGKVNICCKKQLFGQTKDIGWNDWIIAPSGYHGGGCSGECPSHIAGTSGSSLSFHSTVINHYRMRGHSPNANLKSCCSPTKLRPMSMLYYDDGQNIIKKDIQNMKVEECGCT | 5495 | 3.63E+05 | 1.6% | 5558 | 5.77E+05 | 2.5% | 4474 | 7.23E+05 | 3.2% |  |  |  |  | 
ACTN90: activin A variant peptide, SEQ ID 91 (protein) GLECDGKVNICCKKQSFGQTKDIGWNDWIIAPSGYHGGSCSGECPSHIAGTSGSSLSFHSTVINHYRMRGHSPFANLKSCCSPTKLRPMSMLYYDDGQNIIKKDIQNMKVEECGCT | 1727 | 1.34E+06 | 5.9% | 2819 | 4.13E+05 | 1.8% | 3042 | 1.33E+06 | 5.8% |  |  |  |  | 
ACTN79: activin A variant peptide, SEQ ID 80 (protein) GLECDGKVNICCKKQSFGQAKDIGWNDWIIAPSGYHGGGCTGECPSHIAGTSGSSLSFHSTVINHYRMRGHSPWANLKSCCSPTKLRPMSMLYYDDGQNIIKKDIQRMVVEECGCT | 2958 | 4.07E+05 | 1.8% | 7704 | 3.83E+05 | 1.7% | 2486 | 6.19E+04 | 0.3% |  |  |  |  | 
ACTN76: activin A variant peptide, SEQ ID 77 (protein) GLECDGKVNICCKKQLFGQTKDIGWNDWIIAPSGYHGGGCSGECPSHIAGTSGSSLSFHSTVINHYRMRGHSPNANLKSCCSPTKLRPMSMLYYDDGQNIIKKDIQGMKVEECGCT | 3613 | 9.19E+05 | 4.0% | 4732 | 1.43E+06 | 6.2% | 7608 | 7.54E+05 | 3.3% |  |  |  |  | 
ACTN84: activin A variant peptide, SEQ ID 85 (protein) GLECDGKVNICCKKQSFGQAKDIGWNDWIIAPSGYHGGGCSGECPSHIAGTSGSSLSFHSTVINHYRMRGHSPFANLKSCCSPTKLRPMSMLYYDDGQNIIKKDIQNMVVEECGCT | 1976 | 3.37E+05 | 1.5% | 2272 | 2.65E+05 | 1.2% | 5228 | 8.40E+05 | 3.7% |  |  |  |  | 
ACTN87: activin A variant peptide, SEQ ID 88 (protein) GLECDGKVNICCKKQSFGQAKDIGWNDWIIAPSGYHGGSCSGECPSHIAGTSGSSLSFHSTVINHYRMRGHSPFANLKSCCSPTKLRPMSMLYYDDGQNIIKKDIQNMVVEECGCT | 1548 | 5.85E+05 | 2.6% | 3258 | 7.89E+05 | 3.4% | 3613 | 3.99E+05 | 1.7% |  |  |  |  | 
ACTN24: activin A variant peptide, SEQ ID 25 (protein) GLECDGKVNLCCKKQDFVSFKDIGWNDWIIAPSGYHANRCSGRCPSHIAGTSGSSLSFHSTVINHYRMRGHSPFSDMGSCCVPTKLRPMSMLYYDDGQNIIKKDIQNMIVEECGCS |  |  |  |  |  | 13.2% |  |  |  | 3261 | 2.91E+06 | 4785 | 1.04E+07 | 18.8%
ACTN25: activin A variant peptide, SEQ ID 26 (protein) GLECDGKVNLCCKKQNFVSFKDIGWNDWIIAPSGYHANECSGLCPSHIAGTSGSSLSFHSTVINHYRMRGHSPFSQMGSCCIPTKLRPMSMLYYDDGQNIIKKDIQNMIVEECGCS |  |  |  |  |  | 16.1% |  |  |  | 5043 | 3.55E+06 | 4620 | 1.52E+07 | 27.6%
ACTN26: activin A variant peptide, SEQ ID 27 (protein) GLECDGKVNLCCKKQHFVSFKDIGWNDWIIAPSGYHANRCDGKCPSHIAGTSGSSLSFHSTVINHYRMRGHSPFANMGACCIPTKLRPMSMLYYDDGQNIIKKDIQNMIVEECGCS |  |  |  |  |  | 2.7% |  |  |  | 4250 | 5.92E+05 | 5043 | 4.78E+06 | 8.6%
ACTN29: activin A variant peptide, SEQ ID 30 (protein) GLECDGKVNLCCKKQLFVSFKDIGWNDWIIAPSGYHANHCSGKCPSHIAGTSGSSLSFHSTVINHYRMRGHSPFSDMGSCCIPTKLRPMSMLYYDDGQNIIKKDIQNMIVEECGCS |  |  |  |  |  | 232.0% |  |  |  | 8943 | 5.13E+07 | 8835 | 1.03E+08 | 186.2%
